In patent US6362319B1, “Glial cell line-derived neurotrophic factor” (Amgen Inc., priority 1991, dated 2002):

Legend:
[1] = test system: nigral dopaminergic nerve cells; experiment: Experimental Parkinsonism in monkeys treated with MPTP; assay type: in vivo, monkeys (Cebus apella); details: intraventricular minipump, 14 days, MPTP 0.6 mg/kg
Description: A stainless-steel cannula may be implanted into the right lateral ventricle and connected to a subcutaneously-implanted osmotic minipump (Alzet 2002). The minipump contains GDNF at various concentrations or its diluent as a negative control. The pump delivers 0.5 μl/h for 14 days. Two days after the cannula-pump implant, monkeys (Cebus apella) receive an injection of 0.6 mg/kg of MPTP into the right carotid artery. Six weeks after the initial implant, animals are perfused with saline and the brain rapidly removed. The brain is dissected on ice and punches of tissue are removed from the caudate nucleus and putamen. The substantia nigra is placed in fixative. The caudate-putamen tissue is analyzed by HPLC-EC for dopamine, the substantia nigra is processed for tyrosine hydroxylase (TH) immunoreactivity.
Degeneration of nigral dopaminergic nerve cells and their axonal projections to the caudate/putamen cause experimental Parkinsonism in this monkey model. There are several experimental indications that GDNF may prevent or reduce the severity of this neuronal degeneration. […] This indicates sparing by GDNF of nigral dopaminergic nerve cells from the toxic effects of MPTP. […] This indicates sparing by GDNF of the axonal projections of the nigral dopaminergic neurons from the toxic effects of MPTP. […]

[2] = test system: GABA neurons in mesencephalic cultures; experiment: 14C-GABA uptake in mesencephalic cultures; assay type: cell-based, rat; details: cultures grown with GDNF for 16 days
Description: FIGS. 21A-C depicts the specificity of GDNF to dopaminergic neurons. Cultures were established as described in Example 1B. GDNF was added on the day of plating. A. ^3H-DA uptake was measured after seven days in vitro. B. ^14C-GABA uptake was measured after eight days in vitro. Cells were incubated and treated as for ^3H-DA uptake, except the uptake buffer consists of Kreb-Ringer's phosphate buffer, pH 7.4, containing 5.6 mM glucose, 1.3 mM EDTA, 10 μM amino-oxyacetic acid (to prevent GABA breakdown), 2 mM β-alanine (to inhibit glia uptake of GABA) and 0.1 μM ^14C-GABA (150 mCi/mmole, New England Nuclear, Boston, Mass.). In the presence of 1 mM diaminobutyric acid (DABA), a potent inhibitor of ^14C-GABA uptake into GABA neurons, the ^14C-uptake was reduced to 10%. Control values in the presence of DABA were subtracted from experimental values.
H^3-dopamine (^3H-DA) and ^14C-GABA uptake were measured in sister cultures of mesencephalic cells which had been grown with various concentrations of GDNF for 15 and 16 days, respectively. As described above, GDNF enhanced the ^3H-DA uptake capacity of mesencephalic dopamine neurons ˜150% over control without GDNF (FIG. 21A). […] This is also illustrated by the increase in the ^3H-DA/^14C-GABA uptake ratio calculated (FIG. 21C).

[3] = test system: serotonergic neurons in rat embryo mesencephalic cultures; experiment: 3H-serotonin uptake in mesencephalic cultures; assay type: cell-based; details: uptake after 6 days in vitro
Description: FIGS. 24A-B depicts the specificity of GDNF to dopaminergic neurons. Cultures were prepared as described in Example 1B. GDNF was added on the day of plating, and uptake was measured after 6 days in vitro. A depicts dopamine uptake and B depicts serotonin uptake.
In the presence of 10 μM citalpram (obtained from Dr. C. Mytilineou, Mount Sinai School of Medicine), a known potent inhibitor of serotonin uptake in serotonin neurons, the ^3H-serotonin uptake was reduced to 15%.

B1: glial cell line-derived neurotrophic factor (protein)
chain: SNMPEDYPDQFDDVMDFIQATIKRLKRSPDKQMAVLPRRERNRQAAAANPENSRGKGRRGQRGKNRGCVLTAIHLNVTDLGLGYETKEELIFRYCSGSCDAAETTYDKILKNLSRNRRLVTDKVGQACCRPIAF
notes: dopaminergic neurotrophic protein purified from serum-free conditioned medium of rat B49 glioblastoma cells; disulfide-bonded dimer
[1]
  loss of dopamine content in the caudate/putamen: may also prevent the loss of dopamine content in the caudate/putamen
[2]
  14C-GABA uptake higher than control: ~20%
[3]
  effect on serotonin uptake: fails to increase the uptake of serontonin
